± gives the standard deviation.
Assay: protein stability index of a GFP-peptide fusion (GPS, HEK-293T) (PSI 1-6); higher = more stable
[1] = treatment: DMSO, c terminus: a fixed tail appended
[2] = treatment: MLN4924 1 uM, 8 h, c terminus: a fixed tail appended
[3] = treatment: DMSO, c terminus: native
[4] = treatment: MLN4924 1 uM, 8 h, c terminus: native
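Also: 24-mer peptide tiles fused after GFP, lentivirally expressed, FACS-sorted into six equal bins by GFP/DsRed ratio, decoded by Illumina sequencing, PSI is the read-weighted mean bin number.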

Sequence TPQHHEKQYAMQRPNDDSLAFLDK [IQUB] has a protein stability index [1] of 4.53 ± 0.23 and a protein stability index [2] of 4.58 ± 0.17.
TQARQVMEREFNNLLALGTDRKLD [PPFIA4] gave a protein stability index [1] of 4.21 ± 0.52 and a protein stability index [2] of 4.12 ± 0.38.
For TREAHRESSVPVTPSVPPPASQHS [FBF1], the protein stability index [1] was 4.94 ± 0.099 and the protein stability index [2] was 5.07 ± 0.12.
For TSDGYTALHLAARNGHLATVKLLV [RIPK4], the protein stability index [1] was 2.35 ± 0.57 and the protein stability index [2] was 2.25 ± 0.33.
Sequence TSDSEGAHVNTLHSGTKRDPKEDV [PHTF1] has a protein stability index [1] of 5.51 ± 0.22 and a protein stability index [2] of 5.54 ± 0.21.
TSFIRGPNPSKVLQQLLVLQPEQQ [CDS1] showed a protein stability index [1] of 3.37 ± 0.19 and a protein stability index [2] of 3.3 ± 0.095.
Work on TSGNPNGRYGSGYLLASTPESEL [SLC6A17] yielded a protein stability index [3] of 4.62 ± 0.37 and a protein stability index [4] of 4.58 ± 0.2.
In the case of TSKCGSLKNIRHRPGGGRVKIESV [MAP2], the protein stability index [1] is reported as 3.1 ± 0.21 and the protein stability index [2] is reported as 3.3 ± 0.44.
Work on TSPHFSTRHEGSFQVPVLCAVMNV [CD69] yielded a protein stability index [1] of 2.81 ± 0.51 and a protein stability index [2] of 2.63 ± 0.59.
Work on TTFRGHTGGVTALCWDPVQRVLFS [WDFY2] yielded a protein stability index [1] of 2.25 ± 0.23 and a protein stability index [2] of 2.26 ± 0.23.
TVDLELELQIELLRETKRKYESVL [ARFIP2] showed a protein stability index [1] of 2.71 ± 0.19 and a protein stability index [2] of 2.91 ± 0.22.
TVLLEEETLEASVGPRETEEKVRD [TOR1AIP2] showed a protein stability index [1] of 5.59 ± 0.21 and a protein stability index [2] of 5.51 ± 0.24.
Sequence TVTVISPLELMRTKLQAQHVSYRE [SLC25A39] has a protein stability index [1] of 2.65 ± 0.41 and a protein stability index [2] of 2.81 ± 0.22.
Work on TYEKLSRAMRYYYKREILERVDGR [ELF3] yielded a protein stability index [1] of 2.21 ± 0.4 and a protein stability index [2] of 2.26 ± 0.37.
For TYLRLIVDHHGTAQLQALRQKEVD [INTS3], the protein stability index [1] was 2.27 ± 0.2 and the protein stability index [2] was 2.35 ± 0.3.
Work on TYVDKKRDLLGALKHWRRAMELRH [FEM1A] yielded a protein stability index [1] of 2.28 ± 0.26 and a protein stability index [2] of 2.31 ± 0.11.
For VAMLGVFLVSAVAHEYIFCFVLGF [SOAT2], the protein stability index [1] was 3.21 ± 0.36 and the protein stability index [2] was 3.14 ± 0.5.
In the case of VASCMHRQETVDCLKKFNARRKLK [CAMK2A], the protein stability index [1] is reported as 4.05 ± 0.69 and the protein stability index [2] is reported as 4.03 ± 0.26.
For VCYHYYADWFMSLGVGLLTFASLE [TMEM40], the protein stability index [1] was 3.04 ± 0.18 and the protein stability index [2] was 3.08 ± 0.18.
For VDISVPPTTDGQKPNKLQCCQNL [RAB11B], the protein stability index [3] was 4.77 ± 0.31 and the protein stability index [4] was 4.93 ± 0.091.
Work on VEMLCDQAWGSMLEVPAGSRLNLT [CCDC3] yielded a protein stability index [1] of 2.75 ± 0.28 and a protein stability index [2] of 2.96 ± 0.31.
VEQMTKEERQAAQNECQVLKLLNH [NEK8] showed a protein stability index [1] of 4.59 ± 0.18 and a protein stability index [2] of 4.63 ± 0.15.
Sequence VEQPKGTEVVRDAVRKLKFARHIK [GULP1] has a protein stability index [1] of 3.7 ± 0.11 and a protein stability index [2] of 3.77 ± 0.16.
With VERAQQVAVQEQEIARREKELEAR [FLOT1] the protein stability index [1] was 5.27 ± 0.36 and the protein stability index [2] was 5.3 ± 0.18.
In the case of VERPHSGLPGKVFACLSVLFVTVT [KCNG1], the protein stability index [1] is reported as 3.03 ± 0.73 and the protein stability index [2] is reported as 2.52 ± 0.38.
With VFDNAIRAALISRRHLQFWKSHLK [RHOBTB1] the protein stability index [1] was 2.06 ± 0.63 and the protein stability index [2] was 2.4 ± 0.29.
Work on VFSYFLATDMISIFEPPVRNSGII [EFHC1] yielded a protein stability index [1] of 3.65 ± 0.91 and a protein stability index [2] of 3.14 ± 0.67.
In the case of VGELLPCKICGRTFFPVALKKHGP [ZC2HC1A], the protein stability index [1] is reported as 2.84 ± 0.51 and the protein stability index [2] is reported as 2.57 ± 0.19.
Sequence VGSGGATSGKLLLEADELCDDGGD [ZBTB22] has a protein stability index [1] of 5.56 ± 0.22 and a protein stability index [2] of 5.55 ± 0.22.
In the case of VHQRGSSTAKKEDINLSVRKLLNR [TRIP13], the protein stability index [1] is reported as 3.72 ± 0.31 and the protein stability index [2] is reported as 3.87 ± 0.25.
VKDDDRLTFHRHPVAQSTDGIRGK [SPSB4] gave a protein stability index [1] of 4.89 ± 0.25 and a protein stability index [2] of 4.83 ± 0.23.
Sequence VKELGTVMRMLGQTPTKEELDAII [TNNC2] has a protein stability index [1] of 3.02 ± 0.29 and a protein stability index [2] of 3.04 ± 0.94.
VKEPCSLPMLSVDMENKENGSVGV [SAMD13] gave a protein stability index [1] of 5 ± 0.19 and a protein stability index [2] of 5.11 ± 0.21.
Work on VKNDRDRVGHKSIPMRNLRARPAK [SERPINB5] yielded a protein stability index [1] of 3.98 ± 0.35 and a protein stability index [2] of 4.4 ± 0.11.
Work on VKTRLEQEIATYRRLLEGEDAHLT [KRT17] yielded a protein stability index [1] of 3.62 ± 0.14 and a protein stability index [2] of 3.77 ± 0.3.
With VLGFLIENFKGLAIPYLEHIIHVW [VPS39] the protein stability index [1] was 2.36 ± 0.46 and the protein stability index [2] was 2.5 ± 0.31.
VLMIAIQLISRMEYVHSKNLIYRD [CSNK1G3] gave a protein stability index [1] of 2.86 ± 0.13 and a protein stability index [2] of 2.72 ± 0.44.
With VLQENYTHLPKADIFALALTVVCA [WEE1] the protein stability index [1] was 2.69 ± 0.85 and the protein stability index [2] was 2.38 ± 0.27.
Sequence VLQIDNAKLAADDFRTKYETELSL [KRT36] has a protein stability index [1] of 3.54 ± 0.37 and a protein stability index [2] of 3.49 ± 0.14.
In the case of VLVLTKPLGTQVAVNAHQWLDNPE [SEPHS2], the protein stability index [1] is reported as 2.4 ± 0.18 and the protein stability index [2] is reported as 2.19 ± 0.37.
For VLYALRSFDYEQFHELQMQVTASD [PCDHGA10], the protein stability index [1] was 2.26 ± 0.12 and the protein stability index [2] was 2.22 ± 0.27.
VMFQRRYYKPGLLMMCFILPTLVP [SCD] gave a protein stability index [1] of 3.51 ± 0.77 and a protein stability index [2] of 2.72 ± 0.71.
Sequence VNPNGQKQQLVDAFLKLAKQRSVC [FAN1] has a protein stability index [1] of 3.16 ± 0.27 and a protein stability index [2] of 2.92 ± 0.32.
VNQYVIRPGPSASAASSAAAGEPL [RNF208] gave a protein stability index [1] of 3.88 ± 0.22 and a protein stability index [2] of 3.96 ± 0.23.
VNSVCWASLNHLDSHILLCLMGLA [DCAF4] gave a protein stability index [1] of 2.51 ± 0.63 and a protein stability index [2] of 2.69 ± 0.36.

Source: the supplement of paper PMC10567573
